Measurements as given in paper PMC10315472.

Legend:
AMSIN (actinomyces) = assay: SPR
[1] = molecular target: emorisin (Emergomyces orientalis); assay: SPR

Substance | Kd (AMSIN (actinomyces)) [nM] | koff (AMSIN (actinomyces)) [s⁻¹] | kon (AMSIN (actinomyces)) [M⁻¹ s⁻¹] | Kd [1] [nM] | koff [1] [s⁻¹] | kon [1] [M⁻¹ s⁻¹]
γRBD (from UniProt P0DTC2 319-541) (domain or fragment) | 607 | 0.00545 | 8970 | – | – | –
βRBD (from UniProt P0DTC2 319-541) (domain or fragment) | 310 | 0.00536 | 17300 | 49.5 | 0.00561 | 11400
δRBD (from UniProt P0DTC2 319-541) (domain or fragment) | 76.6 | 0.0038 | 49600 | 31.6 | 0.00202 | 64000
ζRBD (from UniProt P0DTC2) (domain or fragment) | 1450 | – | – | – | – | –
αRBD (from UniProt P0DTC2) (domain or fragment) | 37.4 | – | – | – | – | –
Spike protein of the SARS-CoV-2 Omicron variant (from UniProt P0DTC2) (natural protein) | 57.9 | – | – | – | – | –
